This is an account of results in patent publication US20180092975A1.

Assay [1] has as its target cyno PD-1 expressed on cells (cynomolgus monkey) (UniProt B0LAJ3). Nature of the assay: flow cytometry on CHO cells expressing cyno PD-1, detection with anti-human IgG Fc, PE GeoMFI. Further details: unit not given here. For orientation: A flow cytometer gives signals particle by particle.
Assay [2] has as its target human PD-1 expressed on cells (human) (UniProt Q15116). Nature of the assay: flow cytometry on CHO cells expressing human PD-1, detection with anti-human IgG Fc, PE GeoMFI. Further details: unit not given here.
Chain of UniProt Q15116 (Q15116 25-198 limits assumed): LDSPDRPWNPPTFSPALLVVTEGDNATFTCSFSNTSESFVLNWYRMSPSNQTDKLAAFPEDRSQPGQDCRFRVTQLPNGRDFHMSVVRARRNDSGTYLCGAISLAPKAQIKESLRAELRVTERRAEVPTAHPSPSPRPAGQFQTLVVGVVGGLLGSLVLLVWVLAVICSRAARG

Chain of UniProt B0LAJ3 (B0LAJ3 entry or part of it limits assumed): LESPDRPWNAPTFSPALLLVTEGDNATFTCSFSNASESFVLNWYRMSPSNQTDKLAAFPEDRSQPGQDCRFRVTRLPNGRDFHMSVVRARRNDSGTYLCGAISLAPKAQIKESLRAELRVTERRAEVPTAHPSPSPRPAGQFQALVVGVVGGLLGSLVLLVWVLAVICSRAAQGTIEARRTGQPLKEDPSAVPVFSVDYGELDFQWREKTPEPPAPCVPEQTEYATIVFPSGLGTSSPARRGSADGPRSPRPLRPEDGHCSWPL

As to huIgG1 Fc, the LogEC50 in assay [1] is -6.89; in assay [2] it was -7.75.
